Results taken from PMC12297659, “In situ structure of the mouse sperm central apparatus reveals mechanistic insights into asthenozoospermia” (Cell Research, 2025).

B1: SPAG16 (natural protein, mouse (endogenous in sperm), UniProt Q8K450 1-639, looked up)
chain: MAAPSGVPPLRVLEELGIGLSPTGEVTEAVTSEGAYYLEQVTITETSEDECEYEEIPDDNFSIPEGEEDLEKAIHIIGEQARDIHILEQQTILPARNVMQEAIEDFLCNFLIKMGMTRTLDCFQAEWYELIQKKGSDFKGLGNVPDVYSQVMLLETENKNLKKELKHFKQAAEKAKEDLLRTQKERDFHRMHHKRIVQEKNKLIADLKGLKLHYASYEPTIRVLHEKHHALLKEKMLTSLERDRAVGKISGLQATLKNIDMGHIQVPVIKGSYESASITRESGDRAGHSCEKENSSEGPTQKSLREAREEVGYKSKLKNEKKDSEFPVDMQPDPNVTSCTENVSAAKFDYKLNNIFRLHELPVSCIVMHPCRDYLISCSEDRLWKMVGLPQGNVLLTGSGHTDWLSGCCFHPSGSKLATSSGDSTIKLWDLNKGECTLTLEGHNHAVWSCTWHSCGDFVASASLDMTSKIWDVNSERCRYTLYGHTDSVNSIEFFPFSNILLTASADKTLSVWDARTGKCEQSLYGHMHSVNDATFTPRGHIIASCDARGVTKLWDFRKLIPIVSIDVGPSSGNEVNFDQSGRVLAQASANGIIHLLDLKSGQIHKLVGHESEVHSVVFSHLGENLYSGGSDGTIRLWI
notes: SPAG16, mouse, with a coiled-coil domain and a C-terminal β-propeller domain; Adjacent copies dimerise through the coiled-coil domain; also called PF20 homolog; source: endogenous, in intact mouse sperm (cryo-FIB lamellae)
B2: CFAP70 (natural protein, mouse (endogenous in sperm), UniProt D3YVL2 1-1141, looked up)
chain: MDQTSSTTKIVHITVTNGYDLKGFKGDTPVTFVRAEFNQTVLGDSSKVTVSPEGTAKYNFTSNIDLSPDGGGALDDLAHKPLFLTVTEVLPKEKKQKDEKTLILGQAVVDLLPLLEGEESFETTVPLHPVPGSPLETPLPGSKQCSLDVKVFVAEPLLTPAQVSASNLLKVTLEAAYSVPESFIPVGPQQNYMVGLQVPSVGEKDYTMIFKNGNLKLGGEKEPVPRPKKWPIANILAPGASNIPDEFIVGGPYEEEEGELNHPEDREFRNQAECTKKRIVWDLESRCFLHPFAVASFQKRIADCRLWPVEITRVPLVVMPKAKPGKLEKIDDENQLSFHGVAYINMVPLLYPGVKKIRGAFHVYPYLDGTVFEKTKCLFSLFRDTGHHLVQNNKAGGLNSPLSKPLSKNLKEEKPGKDKDTEGRPRLGELQAPSIKSQSSDTPLESEAPLSHNLEGQQYIEAGTYIVLEIQLEKALVPKRMPEELARRVKEMIPPRPPLTRRTGGAQKAVSDYHTQIKSISRAILNEYYRMFGKQGPKLESDIDNETMEERKCQLNYELNCSGKYFAFKEQLKHAVVKIVREKYLKTTAFESQEELQTFISELYVFLVDQMHVALNQAVPDDVPSSTSTIQTSSEQLRLFAFEAEVNEKFEIAAMYYEERLVREPQNLENWLDYGAFCLLTEDNIKAQECFRKALSLNESHVDSLLLCGVLAILLENYEQAEIFFEDATCLEPTNVIAWTLLGLFYEIQNNDIRMEMAFHEAFKQLQARTLQTKLKSTVTIENMEEGVKVEPSFGPWGVVQESTTAIKTEGLSGMRPQSSHQLSPHTNMELHPQPQGPNTALSSLDEFLEESPKAQSESQEPMATGQPLEPSLVQRSSNALLKELTSKKDISKCQDSSAFSPPTQHVIAQPPVTIFMETIRFLMKVNAVQFVHRVLAHELLCPQGGPSCEYYLVLAQTHLLKKDFAKTEEYLQQAAQMDYLNPNVWGVKGHLYFLSGNHAEAKECYERTISFVVDASEMHFIFLRLGHIYLEEKEYENAKRTYMHACKRSPSCLTWLGLGIACYRLEELTEAEDALSEANALNNCNAEVWAYLALVCLKVGRQLEAEQAYKYTIKLKLKDQALLEEIHTVQEMVGFGNPSF
notes: CFAP70, mouse; The CFAP70 dimer was predicted with AlphaFold2 Multimer before fitting; source: endogenous, in intact mouse sperm (cryo-FIB lamellae)

Legend:
Assay in all cases: cryo-EM structure; in situ cryo-electron tomography with subtomogram averaging of about 200 nm cryo-FIB lamellae of wild-type mouse sperm; local maps of 5.5 Å to 18 Å; AlphaFold2 models fitted into the density
[1] = molecular target: GMCL1 (BTBD16) (mouse (endogenous in sperm)) (UniProt Q920G9)
[2] = molecular target: SPATA17 (mouse (endogenous in sperm)) (UniProt Q9D552)
[3] = molecular target: the molecule itself

Sequence of SPATA17 (mouse (endogenous in sperm)) (Q9D552 whole entry): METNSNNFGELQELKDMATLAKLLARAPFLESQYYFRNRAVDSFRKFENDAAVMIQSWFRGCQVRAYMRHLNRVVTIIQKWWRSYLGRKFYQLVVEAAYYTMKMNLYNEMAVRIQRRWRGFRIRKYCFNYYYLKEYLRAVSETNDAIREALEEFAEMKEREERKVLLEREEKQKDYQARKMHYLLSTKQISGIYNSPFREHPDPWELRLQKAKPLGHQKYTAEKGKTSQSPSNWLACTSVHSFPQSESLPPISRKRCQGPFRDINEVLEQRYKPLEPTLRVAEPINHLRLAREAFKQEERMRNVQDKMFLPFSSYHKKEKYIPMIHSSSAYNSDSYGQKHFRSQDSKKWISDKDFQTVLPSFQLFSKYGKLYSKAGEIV

| Molecule | stoichiometry N [3] | also measured |
| --- | --- | --- |
| GMCL1 (BTBD16) (from UniProt Q920G9 1-524) (natural protein) |  | stoichiometry N [1]: 2 |
| calmodulin (CaM) (from UniProt P0DP26 1-149) (natural protein) |  | stoichiometry N [2]: 3 |
| B1 | 2 |  |
| B2 | 2 |  |
